# Biological target: Factor X (FX), P00742
# Sequence (P00742 whole entry, looked up): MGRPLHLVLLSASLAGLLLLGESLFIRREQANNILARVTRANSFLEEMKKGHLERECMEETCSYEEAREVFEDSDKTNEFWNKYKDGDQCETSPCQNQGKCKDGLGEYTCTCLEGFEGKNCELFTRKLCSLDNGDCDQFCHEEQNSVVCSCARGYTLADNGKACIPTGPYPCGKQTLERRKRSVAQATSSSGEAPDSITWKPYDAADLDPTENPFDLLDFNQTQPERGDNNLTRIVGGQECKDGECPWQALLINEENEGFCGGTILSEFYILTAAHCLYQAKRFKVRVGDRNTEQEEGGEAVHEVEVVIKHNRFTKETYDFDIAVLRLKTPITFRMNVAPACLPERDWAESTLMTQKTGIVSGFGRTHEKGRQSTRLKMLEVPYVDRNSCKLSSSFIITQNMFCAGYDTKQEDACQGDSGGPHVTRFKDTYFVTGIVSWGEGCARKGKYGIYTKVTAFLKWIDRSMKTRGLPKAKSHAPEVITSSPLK
Protein,% of WT kcat/KM (against Catalyst Biosciences WT FIXa) [%],KM [µM],"kcat/KM for activation of FX by FIXa in the Xase complex (FVIIIa, PC/PS vesicles, Ca2+), fluorogenic Spectrafluor FXa read-out [M⁻¹ s⁻¹]","KM (nM), FX activation by FIXa in the Xase complex (FVIIIa, PC/PS vesicles, Ca2+), indirect fluorogenic assay with Spectrafluor FXa [nM]","% of WT kcat/KM (against Catalyst Biosciences WT FIXa), FX activation in the Xase complex [%]","kcat/KM for FX activation by FIXa in the Xase complex (FVIIIa, PC/PS vesicles, Ca2+), indirect fluorogenic Spectrafluor FXa assay [M⁻¹ s⁻¹]","KM (nM) for activation of FX by FIXa in the Xase complex (FVIIIa, PC/PS vesicles, Ca2+), fluorogenic Spectrafluor FXa assay [nM]"
FIXa-A103N/N105S/K247N/N249S/R318Y/R338E/R403E/E410N (protein) chain 1: not shown chain 2: not shown,324,0.028,1.5e+08,–,–,–,–
FIXa-K228N/R318Y/R338E/T343R/R403E/E410N (protein) chain 1: not shown chain 2: not shown,–,–,–,40.3,–,–,–
FIXa-K228N/K247N/N249S/R318Y/R338E/T343R/R403E (protein) chain 1: not shown chain 2: not shown,–,–,–,44.4,–,–,–
FIXa-R318Y/T343R/E410N (protein) chain 1: not shown chain 2: not shown,–,–,–,52.3,–,–,–
FIXa-R318Y/R338E/R403E/T412A (protein) chain 1: not shown chain 2: not shown,–,0.0675,–,–,–,–,–
FIXa-Y155F/K247N/N249S/R318Y/R403E/E410N (protein) chain 1: not shown chain 2: not shown,–,0.125,–,–,–,–,–
FIXa-Y155F/R338E/R403E/E410N (protein) chain 1: not shown chain 2: not shown,–,0.0336,–,–,–,–,–
FIXa-N260S/R318Y/R338E/R403E/E410N (protein) chain 1: not shown chain 2: not shown,–,0.0724,–,–,117,5.3e+07,–
FIXa-Y155F/R318Y/T343R/E410N (protein) chain 1: not shown chain 2: not shown,–,–,–,40.3,–,–,–
FIXa-R318Y/R338E/T412A (protein) chain 1: not shown chain 2: not shown,–,0.0235,–,–,661,3e+08,–
FIXa-Y155F/K228N/K247N/N249S (protein) chain 1: not shown chain 2: not shown,115,0.0792,5.3e+07,–,–,–,–
FIXa-K247N/N249S/R318Y/R403E/E410N (protein) chain 1: not shown chain 2: not shown,–,0.111,–,–,–,–,–
FIXa-D104N/K106S/Y155F/K247N/N249S/N260S (protein) chain 1: not shown chain 2: not shown,–,0.0685,–,–,18,8.2e+06,68.5

# Reference: patent US11491212
